Positions count from the first letter of the chain named. In names and notes the source's numbering stands.
B1: ^316ATPF^319AVPI: Caspase-9 mutant (SEQ ID NOS 97 and 98) (SMAC/Diablo) (protein, UniProt P55211 1-416, looked up, variant T317V F319I)
chain: MDEADRRLLRRCRLRLVEELQVDQLWDALLSRELFRPHMIEDIQRAGSGSRRDQARQLIIDLETRGSQALPLFISCLEDTGQDMLASFLRTNRQAAKLSKPTLENLTPVVLRPEIRKPEVLRPETPRPVDIGSGGFGDVGALESLRGNADLAYILSMEPCGHCLIINNVNFCRESGLRTRTGSNIDCEKLRRRFSSLHFMVEVKGDLTAKKMVLALLELAQQDHGALDCCVVVILSHGCQASHLQFPGAVYGTDGCPVSVEKIVNIFNGTSCPSLGGKPKLFFIQACGGEQKDHGFEVASTSPEDESPGSNPEPDAVPIQEGLRTFDQLDAISSLPTPSDIFVSYSTFPGFVSWRDPKSGSWYVETLDDIFEQWAHSEDLQSLLLRVANAVSVKGIYKQMPGCFNFLRKKLFFKTS
B2: ^402GCFNF^406YCSTL: Caspase-9 homodimerization domain mutant (SEQ ID NOS 95 and 100) (Casp-2) (protein, UniProt P55211 1-416, looked up, variant G402Y F404S N405T F406L)
chain: B1 chain with V317T, I319F, G402Y, F404S, N405T, F406L
B3: ^402GCFNF^406QPTFT: Caspase-9 homodimerization domain mutant (SEQ ID NOS 95 and 102) (Casp-8) (protein, UniProt P55211 1-416, looked up, variant G402Q C403P F404T N405F F406T)
chain: B1 chain with V317T, I319F, G402Q, C403P, F404T, N405F, F406T
B4: ^402GCFNF^406CIVSM: Caspase-9 homodimerization domain mutant (SEQ ID NOS 95 and 101) (Casp-3) (protein, UniProt P55211 1-416, looked up, variant G402C C403I F404V N405S F406M)
chain: B1 chain with V317T, I319F, G402C, C403I, F404V, N405S, F406M
B5: ^402GCFNF^406AAAAA: Caspase-9 homodimerization domain mutant (SEQ ID NOS 95 and 99) (protein, UniProt P55211 1-416, looked up, variant G402A C403A F404A N405A F406A)
chain: B1 chain with V317T, I319F, G402A, C403A, F404A, N405A, F406A
B6: T317C (protein)
chain: GFGDVGALESLRGNADLAYILSMEPCGHCLIINNVNFCRESGLRTRTGSNIDCEKLRRRFSSLHFMVEVKGDLTAKKMVLALLELAQQDHGALDCCVVVILSHGCQASHLQFPGAVYGTDGCPVSVEKIVNIFNGTSCPSLGGKPKLFFIQACGGEQKDHGFEVASTSPEDESPGSNPEPDACPFQEGLRTFDQLDAISSLPTPSDIFVSYSTFPGFVSWRDPKSGSWYVETLDDIFEQWAHSEDLQSLLLRVANAVSVKGIYKQMPGCFNFLRKKLFFKTS
B7: F319A (protein)
chain: B6 chain with C183T, F185A
B8: L329G (protein)
chain: B6 chain with C183T, L195G
B9: T317E (protein)
chain: B6 chain with C183E
B10: F404A (protein)
chain: B6 chain with C183T, F270A
B11: F326K (protein)
chain: B6 chain with C183T, F192K
B12: F406L (protein)
chain: B6 chain with C183T, F272L
B13: L329K (protein)
chain: B6 chain with C183T, L195K
B14: D330A-T317E (protein)
chain: B6 chain with C183E, D196A
B15: D330A-Y153F (protein)
chain: B6 chain with Y19F, C183T, D196A
B16: C403S (protein)
chain: B6 chain with C183T, C269S
B17: P318A (protein)
chain: B6 chain with C183T, P184A
B18: G402Q (protein)
chain: B6 chain with C183T, G268Q
B19: C403T (protein)
chain: B6 chain with C183T, C269T
B20: D327K (protein)
chain: B6 chain with C183T, D193K
B21: D315A-D330A (protein)
chain: B6 chain with D181A, C183T, D196A
B22: N405A (protein)
chain: B6 chain with C183T, N271A
B23: G402I (protein)
chain: B6 chain with C183T, G268I
B24: G402A (protein)
chain: B6 chain with C183T, G268A
B25: Q328K (protein)
chain: B6 chain with C183T, Q194K
B26: D330A-Y153A (protein)
chain: B6 chain with Y19A, C183T, D196A
B27: D327G (protein)
chain: B6 chain with C183T, D193G
B28: A331K (protein)
chain: B6 chain with C183T, A197K
B29: Q328R (protein)
chain: B6 chain with C183T, Q194R
B30: D330A-N405T (protein)
chain: B6 chain with C183T, D196A, N271T
B31: D327R (protein)
chain: B6 chain with C183T, D193R
B32: N405T (protein)
chain: B6 chain with C183T, N271T
B33: F404S (protein)
chain: B6 chain with C183T, F270S

Tested on: chimeric Caspase-9 polypeptide
Sequence (as listed by the source, change not shown): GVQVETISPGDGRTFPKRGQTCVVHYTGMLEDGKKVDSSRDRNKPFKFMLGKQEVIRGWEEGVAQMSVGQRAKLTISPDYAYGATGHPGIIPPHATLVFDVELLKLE
Assay: Caspase mutant classes and basal activity (Table 3)
Assay type: cell-based, human
Conditions: class heading of Table 3

**Q.** For B1, which “Basal Activity” value is on record?
**A.** The value was “Similar”.

**Q.** How did the “Basal Activity” value turn out when B2 was run?
**A.** Its value is “dead”.

**Q.** B3 was tested. Which “Basal Activity” value did it give?
**A.** The value was “dead”.

**Q.** B4 was tested. Which “Basal Activity” value did it give?
**A.** Its value is “dead”.

**Q.** B5 was tested. Which “Basal Activity” value did it give?
**A.** Its value is “dead”.

**Q.** How did the “Basal Activity” value turn out when B6 was run?
**A.** The value was “Similar”.

**Q.** How did the “Basal Activity” value turn out when B7 was run?
**A.** The value was “Similar”.

**Q.** Which “Basal Activity” value does the source give for B8 here?
**A.** Its value is “Increased”.

**Q.** Which “Basal Activity” value does the source give for B9 here?
**A.** The value was “Increased”.

**Q.** How did the “Basal Activity” value turn out when B10 was run?
**A.** Its value is “dead”.

**Q.** Which “Basal Activity” value does the source give for B11 here?
**A.** Its value is “Increased”.

**Q.** How did the “Basal Activity” value turn out when B12 was run?
**A.** The value was “dead”.

**Q.** For B13, which “Basal Activity” value is on record?
**A.** The value was “Increased”.

**Q.** With B14 as the molecule, how does the “Basal Activity” value read?
**A.** Its value is “dead”.

**Q.** With B15 as the molecule, how does the “Basal Activity” value read?
**A.** Its value is “dead”.

**Q.** B16 was tested. Which “Basal Activity” value did it give?
**A.** The value was “Similar”.

**Q.** How did the “Basal Activity” value turn out when B17 was run?
**A.** The value was “Similar”.

**Q.** How did the “Basal Activity” value turn out when B18 was run?
**A.** The value was “dead”.

**Q.** B19 was tested. Which “Basal Activity” value did it give?
**A.** The value was “Similar”.

**Q.** Which “Basal Activity” value does the source give for B20 here?
**A.** Its value is “Increased”.

**Q.** B21 was tested. Which “Basal Activity” value did it give?
**A.** Its value is “dead”.

**Q.** Which “Basal Activity” value does the source give for B22 here?
**A.** Its value is “Similar”.

**Q.** With B23 as the molecule, how does the “Basal Activity” value read?
**A.** The value was “dead”.

**Q.** For B24, which “Basal Activity” value is on record?
**A.** The value was “dead”.

**Q.** B25 was tested. Which “Basal Activity” value did it give?
**A.** The value was “Increased”.

**Q.** For B26, which “Basal Activity” value is on record?
**A.** Its value is “dead”.

**Q.** B27 was tested. Which “Basal Activity” value did it give?
**A.** The value was “Increased”.

**Q.** With B28 as the molecule, how does the “Basal Activity” value read?
**A.** The value was “Increased”.

**Q.** For B29, which “Basal Activity” value is on record?
**A.** Its value is “Increased”.

**Q.** Which “Basal Activity” value does the source give for B30 here?
**A.** The value was “Increased”.

**Q.** With B31 as the molecule, how does the “Basal Activity” value read?
**A.** The value was “Increased”.

**Q.** Which “Basal Activity” value does the source give for B32 here?
**A.** Its value is “Increased”.

**Q.** With B33 as the molecule, how does the “Basal Activity” value read?
**A.** Its value is “dead”.

Same assay, conditions: class heading of Table 3; ligand IC50

**Q.** For B1, which IC50 is on record?
**A.** Its IC50 is “Similar”.

**Q.** B6 was tested. Which IC50 did it give?
**A.** The IC50 was “Similar”.

**Q.** B7 was tested. Which IC50 did it give?
**A.** The IC50 was “Similar”.

**Q.** Which IC50 does the source give for B16 here?
**A.** Its IC50 is “Similar”.

**Q.** How did the IC50 turn out when B17 was run?
**A.** The IC50 was “Similar”.

**Q.** Which IC50 does the source give for B19 here?
**A.** Its IC50 is “Similar”.

**Q.** B22 was tested. Which IC50 did it give?
**A.** Its IC50 is “Similar”.
